Patent US20190161754A1, “FLUORESCENT BIOSENSOR FOR 2', 3'-CGAMP” (The Regents of the University of California, priority 2016, published 2019)
Starred links: 1 amine or outer side, 2 acyl side, 3 side chain; linkers in the order of their positions; H or OH if unused. Positions of bridges follow the written chain, without caps; N, C: chain ends. Non-standard residues stand in square brackets, D forms with d. Residues, ends and D or L forms follow the SMILES beside them. Chains are numbered I, II in the order given. Actinocin(9to1) = Cc1c2oc3c(C)ccc(C(=O)[*:1])c3nc-2c(C(=O)[*:2])c(N)c1=O; NMeV = CN[C@H](C(=O)O)C(C)C; Sar = CNCC(=O)O

How the values were obtained:
[1] = system: Spinach2 aptamer; assay: Fluorescence of dye-binding Spinach2 aptamer in presence of quinacrine (control); conditions: dose-dependent (FIG. 10)
From the text: FIG. 10 illustrates dose-dependent loss of fluorescence in presence of QC for both the 2′, 3′-cGAMP biosensor and Spinach2 aptamer.
Quinacrine is a DNA intercalator that may disrupt biosensor function by intercalating into the RNA helices.

[2] = system: cGAS; conditions: radiolabeled TLC assay, Gray et al. 2015; cited from earlier work
[3] = target: T1, cGAS (Homo sapiens, UniProt Q8N884); assay: cGAS inhibition assay read out by RNA-based fluorescent biosensor; assay type: biochemical; design: implied by Ni-NTA capture and imidazole elution; made in house; host or cells: BL21-RIL DE3 E. coli; conditions: decrease of signal independent of enzyme activity, called artefactual, read-out: apparent IC50
Experimental: To initiate the enzyme reaction, 0.5 μL of HT-DNA was added to 2.5 μL of 6× enzyme reaction solution containing cGAS, GTP, ATP and cGAS reaction buffer. Generally, final concentrations are 100m/mL HT-DNA, 1.5 μM cGAS, 200 μM GTP, 200 μM ATP, and cGAS reaction buffer (40 mM Tris-HCl (pH 7.5), 100 mM NaCl, 10 mM MgCl2). The reaction was incubated at 37° C. for 2 hours to allow the enzyme reaction to proceed. […] To initiate the fluorescent biosensor reaction, 3 μL of the enzyme reaction was added to 27 μL of biosensor reaction solution containing renatured RNA, DFHBI (or DFHBI-1T), and biosensor activation buffer. Final concentrations are 200 nM RNA, 10 μM DFHBI (or DFHBI-1T), 40 mM HEPES, pH 7.5, 125 mM KCl, 10 mM MgCl2, and 0.1×cGAS reaction buffer (40 mM Tris-HCl (pH 7.5), 100 mM NaCl, 10 mM MgCl2). […] For the inhibition assay, due to the fluorescence of Quinacrine dihydrochloride, DFHBI-1T was used instead. Samples containing only Quinacrine dihydrochloride of varied concentration in the buffer were used for background fluorescence subtraction.

[4] = target: T1, cGAS; assay: Thin-layer chromatography based (radiolabeled TLC) cGAS activity assay with DNA intercalators; assay type: biochemical; design: DNA-dependent human cGAS activity was assayed with recombinant full-length cGAS and HT-DNA; implied by Ni-NTA capture and imidazole elution; made in house; host or cells: BL21-RIL DE3 E. coli; conditions: 100 μM concentration
Experimental: Quinacrine intercalation can lengthen the B-form DNA helix but otherwise would not grossly alter conformation (Hossain et al., (2008). DNA intercalation by quinacrine and methylene blue: a comparative binding and thermodynamic characterization study. DNA Cell Biol 27, 81-90). To support the proposed mechanism of action, other DNA intercalators were tested for effects on cGAS activity. The radiolabeled TLC assay was employed in order to avoid possible complications in data interpretation from compounds interacting with the RNA biosensor. […] Importantly, the enzyme-independent effect of compounds on fluorescence of the RNA biosensors can easily be analyzed in control reactions, which allows one to distinguish compounds in the screen that likely interact with the DNA instead of the enzyme directly.
DNA-dependent human cGAS activity was assayed with recombinant full-length cGAS and HT-DNA (Sigma-Aldrich, St Louis, Mo.). cGAS (estimated final concentration 1.5 μM) or equal volumes of water were incubated with HT-DNA (final concentration 0.1 mg/ml) in the presence of 250 μM ATP and GTP and [a-32P] ATP or GTP (˜30 nM) as indicated. All reactions included 100 mM NaCl, 10 mM MgCl2, 40 mM Tris-HCl (pH 7.5), and reactions were incubated at 37° C. for 1.5 hr. Reactions were terminated with the addition of 5 U of alkaline phosphatase (New England Biolabs) and incubation at 37° C. for 30 min. One microliter of each reaction was spotted onto a PEI-Cellulose F thin-layer chromatography plate (EMD Millipore), and reaction products were separated with the use of 1.5 M KH2PO4 (pH 3.8) as solvent. Plates were dried and radiolabeled products were detected with a phosphor screen and the Typhoon phosphorimager (GE Life Sciences).

[5] = In vitro fluorescence assay of GEMM-II riboswitch-based biosensors with c-di-GMP (binding affinity, turn-on); conditions: for Kd: ligand c-di-GMP; for fold turn-on: 100 nM RNA, 100 μM c-di-GMP
Experimental: (§1) In vitro fluorescence assays were carried out in a buffer containing 40 mM HEPES, pH 7.5, 125 mM KCl. Other conditions, including temperature, concentrations of MgCl2, DFHBI (or DFHBI-1T), ligand (or cell extract) and RNA were varied in different experiments and are indicated in the figures. The RNA was renatured in buffer at 70° C. for 3 min and cooled to ambient temperature for 5 min prior to addition to the reaction solution. DFHBI (or DFHBI-1T) was added to a solution containing buffer and ligand, and then RNA was added at the end before fluorescence measurement. Binding reactions were performed either in 100 μL volumes (96-well plate) or 30 μL (384-well plate) and were incubated at the indicated temperature in either a Corning Costar 3915 96-well black plate or Greiner 781077 384-well black plate until equilibrium was reached, which typically takes 30 to 60 minutes. The fluorescence emission was measured using a Molecular Devices SpectraMax Paradigm Multi-Mode detection platform plate reader (Sunnyvale, Calif.) with the following instrument parameters (for DFHBI): 448 nm excitation, 506 nm emission. In case of DFHBI-1T 470 nm excitation and 510 nm emission was used.
(§2) To measure the binding affinities of 2′, 3′-cGAMP biosensors, fluorescence assays were performed with the following conditions: 37° C., 3 mM MgCl2, 200 nM RNA, and 10 μM DFHBI. The 2′, 3′-cGAMP concentration (ccGAMP) was varied, and the fluorescence of the sample with DFHBI but no RNA was subtracted as background to determine relative fluorescence units. The ratio between the fraction of biosensor that is bound by 2′, 3′-cGAMP and the total 2′, 3′-cGAMP biosensor concentration is given as:
(§3) where Fmin is the fluorescence of the sample containing no 2′,3′-cGAMP, while Fmax is the fluorescence of the sample containing highest concentration of 2′,3′-cGAMP (100 μM). The dissociation constants Kd were determined by least squares fitting to the following equation in Graphpad Prism software: […]

[6] = In vitro fluorescence assay of GEMM-II riboswitch-based biosensors with 2′,3′-cGAMP (binding affinity, turn-on); conditions: for fold turn-on / Kd: 200 nM RNA; for fold turn-on: 100 μM 2′,3′-cGAMP; for Kd: ligand 2′,3′-cGAMP, 37° C., 3 mM Mg2+, 10 μM DFHBI, read-out: Kd (apparent dissociation constant)
Experimental: as §1, §2, §3

[7] = In vitro fluorescence assay of GEMM-II riboswitch-based biosensors with 3′,3′-cGAMP (binding affinity, turn-on); conditions: for fold turn-on: 100 nM RNA, 100 μM 3′,3′-cGAMP; for Kd: ligand 3′,3′-cGAMP
Experimental: as §1, §2, §3

[8] = system: E. coli BL21-Star cells; assay: In vivo fluorescence assay by flow cytometry, biosensor co-expressed with cyclic dinucleotide synthases (WspR, DncV, cGAS); conditions: live E. coli, DFHBI-1T, DncV or cGAS co-expressed

T1 sequence (Q8N884 whole entry): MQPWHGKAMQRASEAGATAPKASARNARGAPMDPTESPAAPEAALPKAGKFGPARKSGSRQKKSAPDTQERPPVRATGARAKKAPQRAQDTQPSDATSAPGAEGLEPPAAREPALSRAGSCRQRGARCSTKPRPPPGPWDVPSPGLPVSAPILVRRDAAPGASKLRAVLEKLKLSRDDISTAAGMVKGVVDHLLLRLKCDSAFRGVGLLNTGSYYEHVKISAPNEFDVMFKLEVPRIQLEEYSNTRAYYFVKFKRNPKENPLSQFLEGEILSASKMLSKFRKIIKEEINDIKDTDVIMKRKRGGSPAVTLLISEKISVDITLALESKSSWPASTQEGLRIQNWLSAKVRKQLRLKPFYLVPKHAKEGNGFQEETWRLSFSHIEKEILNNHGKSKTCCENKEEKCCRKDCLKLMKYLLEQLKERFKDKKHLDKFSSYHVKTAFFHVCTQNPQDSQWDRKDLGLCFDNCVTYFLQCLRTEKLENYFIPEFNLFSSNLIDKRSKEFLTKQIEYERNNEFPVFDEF

Row | Molecule | inhibition of cGAS activity [4] | Kd [5] | fold turn-on [6] | Kd [6] | fold turn-on [5] | fold turn-on [7] | Kd [7] | other results
1 | CCN(CC)CCCC(C)Nc1c2ccc(Cl)cc2nc2ccc(OC)cc12 (centres unmarked) [Quinacrine] | fully inhibited | – | – | – | – | – | – | effect on fluorescence of Spinach2 aptamer [1]: decreased fluorescence; IC50 [2]: 13 µM; IC50 [3]: 39 ± 7 µM
2 | CN(C)c1ccc2nc3ccc(=[N+](C)C)cc-3sc2c1 [methylene blue] | no effect | – | – | – | – | – | – | –
3 | Cc1c2oc3c(C)ccc(C(=O)N[C@@H]4C(=O)N[C@H](C(C)C)C(=O)N5CCC[C@H]5C(=O)N(C)CC(=O)N(C)[C@@H](C(C)C)C(=O)O[C@@H]4C)c3nc-2c(C(=O)N[C@@H]2C(=O)N[C@H](C(C)C)C(=O)N3CCC[C@H]3C(=O)N(C)CC(=O)N(C)[C@@H](C(C)C)C(=O)O[C@@H]2C)c(N)c1=O [Actinomycin D] (I: T[dV]P[Sar][NMeV] / II: T[dV]P[Sar][NMeV]; ester I:1-I:C, II:1-II:C; linker I:N-II:N via Actinocin(9to1)) | partial inhibition | – | – | – | – | – | – | –
4 | Bh P1-5delC: Bh GEMM-II riboswitch fused to Spinach2 via 5 base-paired P1 stem with deletion of a single C, SEQ ID NO: 16 (nucleic acid, synthetic nucleic acid) GATGTAACTGAATGAAATGGTGAAGGACGGGTCCAATAGGGAAGCAACGAAGCATAGCCTTTATATGGACACTTGGGTTATGTGGAGCTACTAGTGTAACCGGCCCTCTTTGTTGAGTAGAGTGTGAGCTCCGTAACTAGTTACATC | – | 0.021 ± 0.008 µM | (5.1x) fold | 13.4 ± 0.9 µM | – | – | – | –
5 | Bh P1-6 WT: GEMM-II riboswitch (Bacillus halodurans C-125)-Spinach2 biosensor, 6 base-paired P1 stem, SEQ ID NO: 12 (nucleic acid, synthetic nucleic acid) GATGTAACTGAATGAAATGGTGAAGGACGGGTCCAAATAGGGAAGCAACGAAGCATAGCCTTTATATGGACACTTGGGTTATGTGGAGCTACTAGTGTAACCGGCCCTCCTTTTGTTGAGTAGAGTGTGAGCTCCGTAACTAGTTACATC | – | 0.056 µM | – | – | (13.1x) fold | (10.8x) fold | > 11 µM | fluorescence activation with c-di-GMP ([5]; FIG. 17, panel B screen): 5 fold; Kd ([7]; listed as wild-type Bh P1-6): > 10 µM; fluorescence response to 2′,3′-cGAMP (in words) ([6]; 20 μM ligand): no response
6 | Bh P1-6 G103A: Bh P1-6 biosensor with G103A mutation in the binding pocket, SEQ ID NO: 18; G73A in b172, b180 likely the same (nucleic acid, synthetic nucleic acid, G73A, b180 likely the same) GATGTAACTGAATGAAATGGTGAAGGACGGGTCCAAATAGGGAAGCAACGAAGCATAGCCTTTATATGGACACTTGGGTTATGTGGAGCTACTAGTGTAACCAGCCCTCCTTTTGTTGAGTAGAGTGTGAGCTCCGTAACTAGTTACATC | – | > 7.4 µM | (10.3) fold | > 65 µM | (8.2x) fold | (9.6x) fold | 0.8 µM | reduction of binding affinity to c-di-GMP relative to wild-type Bh P1-6 ([5]; G103A versus wild-type): more than 125 fold; increase of binding affinity to 3′,3′-cGAMP relative to wild-type Bh P1-6 ([7]; G103A versus wild-type): more than 10 fold; fluorescence activation in response to 2′,3′-cGAMP ([6]; 200 nM biosensor, 20 μM ligand): 5 fold; cellular fluorescence activation upon co-expression of each enzyme [8]: Significant fluorescence activation
